Test results: patent US20260071002A1 (Hoffmann-La Roche, published 2026)

T1: human CEACAM5 (human, UniProt P06731 35-685)
T1 construct: whole, on cells; Target on MKN-45 (DSMZ ACC409) and LS180 (ATCC CL-187) cells; also called carcinoembryonic antigen-related cell adhesion molecule 5; CD66e
T1 sequence (looked up): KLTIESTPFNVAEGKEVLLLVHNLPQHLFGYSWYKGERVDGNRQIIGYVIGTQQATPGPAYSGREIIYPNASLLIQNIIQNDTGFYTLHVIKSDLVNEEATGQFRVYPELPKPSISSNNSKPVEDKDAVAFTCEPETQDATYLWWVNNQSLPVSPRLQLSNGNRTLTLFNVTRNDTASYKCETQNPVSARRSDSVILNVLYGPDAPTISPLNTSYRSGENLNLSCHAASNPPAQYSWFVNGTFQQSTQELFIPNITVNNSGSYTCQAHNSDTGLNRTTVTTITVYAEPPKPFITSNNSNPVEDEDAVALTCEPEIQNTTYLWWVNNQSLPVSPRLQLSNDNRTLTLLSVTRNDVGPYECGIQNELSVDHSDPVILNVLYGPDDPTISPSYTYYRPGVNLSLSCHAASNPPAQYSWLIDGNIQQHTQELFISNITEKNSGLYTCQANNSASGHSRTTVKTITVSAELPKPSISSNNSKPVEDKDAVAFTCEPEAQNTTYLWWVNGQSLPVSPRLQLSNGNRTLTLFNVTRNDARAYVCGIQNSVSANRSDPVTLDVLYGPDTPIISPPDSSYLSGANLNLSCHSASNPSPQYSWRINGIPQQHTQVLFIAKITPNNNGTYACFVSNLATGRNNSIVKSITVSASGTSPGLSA


Biological target: T1, human CEACAM5
Experiment: FACS on MKN-45 cells expressing human CEACAM5
Procedure: The cellular binding assay was performed as follows.
(§1) 10 μl of a 1×10⁴ MKN-45 (DSMZ ACC409) cell suspension in assay buffer was seeded in all Wells of a 384 well polypropylene plate (Weidmann #23490-101). Then 10 μl of antibodies diluted in assay buffer (double concentrated), at a start concentration of 100 μg/ml, serially diluted 1:4 were added to the plate. After 90 minutes incubation at 4° C., 60 μl assay buffer was added followed by a centrifuge step (330×g, 5 min) and an aspirating step (BioTek washer 405H) where 60 μl of supernatant were discarded. 20 μl of detection antibody (Alpaca anti rabbit IgG Chromotek #srbAF647-1) diluted in assay buffer (double concentrated) to a final concentration of 0.5 μg/ml was added to all Wells followed by 1 hour incubation time at room temperature. The cells were then subjected to two washing steps with 40 μl and 60 μl assay buffer as described above and then resuspended in 20 μl assay buffer. Cell binding was measured on an iQue Screener Plus high throughput FACS device from Sartorius/Intellicyt.

Row | Binder | EC50
1 | P1AH2350 (antibody, name in Kabat numbering, V domains shown) VH: QVQLVQSGAEVKKPGSSVKVSCKASGFNIKDTYMHWVRQAPGQGLEWMGRIDPANGNSKYVPKFQGRVTITADTSTSTAYMELSSLRSEDTAVYYCAVFGYYVSDYAMAYWGQGTLVTVSS VL: EIVLTQSPATLSLSPGERATLSCRAGESVDIFGVGFLHWYQQKPGQAPRLLIYRASNRATGIPARFSGSGSGTDFTLTISSLEPEDFAVYYCQQTNEDPYTFGQGTKLEIK | 30.1 nM
2 | P1AH2351 (antibody, human IgG1, name in Kabat numbering, V domains shown, Kabat positions) VH: QVQLVQSGAEVKKPGSSVKVSCKASGFNIKDTYMHWVRQAPGQGLEWMGRIDPANGNSKYVPKFQGRVTITADTSTSTAYMELSSLRSEDTAVYYCAAFGYYVSDYAMAYWGQGTLVTVSS VL: EIVLTQSPATLSLSPGERATLSCRAGESVDIFGVGFLHWYQQKPGQAPRLLIYRASNRATGIPARFSGSGSGTDFTLTISSLEPEDFAVYYCQQTNEDPYTFGQGTKLEIK | 39.1 nM
3 | P1AH2352 (antibody, human IgG1, name in Kabat numbering, V domains shown, Kabat positions) VH: QVQLVQSGAEVKKPGSSVKVSCKASGFNIKDTYMHWVRQAPGQGLEWMGRIDPANGNSKYVPKFQGRVTITADTSTSTAYMELSSLRSEDTAVYYCATFGYYVSDYAMAYWGQGTLVTVSS VL: EIVLTQSPATLSLSPGERATLSCRAGESVDIFGVGFLHWYQQKPGQAPRLLIYRASNRATGIPARFSGSGSGTDFTLTISSLEPEDFAVYYCQQTNEDPYTFGQGTKLEIK | 21.9 nM
4 | P1AH2354 (antibody, human IgG1, name in Kabat numbering, V domains shown, Kabat positions) VH: QVQLVQSGAEVKKPGSSVKVSCKASGFNIKDTYMHWVRQAPGQGLEWMGRIDPANGNSKYVPKFQGRVTITADTSTSTAYMELSSLRSEDTAVYYCASFGYYVSDYAMAYWGQGTLVTVSS VL: EIVLTQSPATLSLSPGERATLSCRAGESVDIFGVGFLHWYQQKPGQAPRLLIYRASNRATGIPARFSGSGSGTDFTLTISSLEPEDFAVYYCQQTNEDPYTFGQGTKLEIK | 20.4 nM
5 | P1AH2357 (antibody, name in Kabat numbering, V domains shown) VH: QVQLVQSGAEVKKPGSSVKVSCKASGFNIKSTYMHWVRQAPGQGLEWMGRIDPANGNSKYVPKFQGRVTITADTSTSTAYMELSSLRSEDTAVYYCAPFGYYVSDYAMAYWGQGTLVTVSS VL: EIVLTQSPATLSLSPGERATLSCRAGESVDIFGVGFLHWYQQKPGQAPRLLIYRASNRATGIPARFSGSGSGTDFTLTISSLEPEDFAVYYCQQTNEDPYTFGQGTKLEIK | 2.3 nM

Biological target: T1, human CEACAM5
Experiment: FACS on MKN-45 cells expressing human CEACAM5
Remark: another data set of the same source
Procedure: as §1

Row | Binder | EC50
6 | P1AI5013 (antibody, human IgG1, V domains shown) VH: EVQLVESGGGLVQPGGSLRLSCAASGFNIKDTYMHWVRQAPGKGLEWVGRIDPANGNSKYADSVKGRFTISADTSKNTAYLQMNSLRAEDTAVYYCAPFGYYVSDYAMAYWGQGTTVTVSS VL: EIVLTQSPATLSLSPGERATLSCRAGESVDHFGVGFLHWYQQKPGQAPRLLIYRASNRATGIPARFSGSGSGTDFTLTISSLEPEDFAVYYCQQTNEDPYTFGQGTKLEIK | 0.685 µg/mL
7 | P1AI5019 (antibody, human IgG1, name in Kabat numbering, V domains shown) VH: EVQLVESGGGLVQPGGSLRLSCAASGFNIKDTYMHWVRQAPGKGLEWVGRIDPANGNSKYADSVKGRFTISADTSKNTAYLQMNSLRAEDTAVYYCAPFGYYVSDYAMAYWGQGTTVTVSS VL: EIVLTQSPATLSLSPGERATLSCRAGESVDIFGVGFLHWYQQKPGQAPRLLIYRGSNRATGIPARFSGSGSGTDFTLTISSLEPEDFAVYYCGQTNEDYYTFGQGTKLEIK | 2.49 µg/mL
8 | P1AI5021 (antibody, human IgG1, name in Kabat numbering, V domains shown) VH: EVQLVESGGGLVQPGGSLRLSCAASGFNIKDTYMHWVRQAPGKGLEWVGRIDPANGNSKYADSVKGRFTISADTSKNTAYLQMNSLRAEDTAVYYCAPFGYYVSDYAMAYWGQGTTVTVSS VL: EIVLTQSPATLSLSPGERATLSCRAGESVDIFGVGFLHWYQQKPGQAPRLLIYRGSNRATGIPARFSGSGSGTDFTLTISSLEPEDFAVYYCGQTNEPPYTFGQGTKLEIK | 1.62 µg/mL
9 | P1AI5023 (antibody, human IgG1, name in Kabat numbering, V domains shown) VH: EVQLVESGGGLVQPGGSLRLSCAASGFNIKDTYMHWVRQAPGKGLEWVGRIDPANGNSKYADSVKGRFTISADTSKNTAYLQMNSLRAEDTAVYYCAPFGYYVSDYAMAYWGQGTTVTVSS VL: EIVLTQSPATLSLSPGERATLSCRAGESVDIFGVGFLHWYQQKPGQAPRLLIYRGSNRATGIPARFSGSGSGTDFTLTISSLEPEDFAVYYCGQTNEHPYTFGQGTKLEIK | 7.21 µg/mL
10 | P1AI5024 (antibody, human IgG1, name in Kabat numbering, V domains shown) VH: EVQLVESGGGLVQPGGSLRLSCAASGFNIKDTYMHWVRQAPGKGLEWVGRIDPANGNSKYADSVKGRFTISADTSKNTAYLQMNSLRAEDTAVYYCAPFGYYVSDYAMAYWGQGTTVTVSS VL: EIVLTQSPATLSLSPGERATLSCRAGESVDIFGVGFLHWYQQKPGQAPRLLIYRGSNRATGIPARFSGSGSGTDFTLTISSLEPEDFAVYYCGQTYEDPYTFGQGTKLEIK | 11.5 µg/mL
11 | P1AI5025 (antibody, human IgG1, name in Kabat numbering, V domains shown) VH: EVQLVESGGGLVQPGGSLRLSCAASGFNIKDTYMHWVRQAPGKGLEWVGRIDPANGNSKYADSVKGRFTISADTSKNTAYLQMNSLRAEDTAVYYCAPFGYYVSDYAMAYWGQGTTVTVSS VL: EIVLTQSPATLSLSPGERATLSCRAGESVDIFGVGFLHWYQQKPGQAPRLLIYRGSNRATGIPARFSGSGSGTDFTLTISSLEPEDFAVYYCGQTSEDPYTFGQGTKLEIK | 2.44 µg/mL
12 | P1AI5026 (antibody, human IgG1, name in Kabat numbering, V domains shown) VH: EVQLVESGGGLVQPGGSLRLSCAASGFNIKDTYMHWVRQAPGKGLEWVGRIDPANGNSKYADSVKGRFTISADTSKNTAYLQMNSLRAEDTAVYYCAPFGYYVSDYAMAYWGQGTTVTVSS VL: EIVLTQSPATLSLSPGERATLSCRAGESVDIFGVGFLHWYQQKPGQAPRLLIYRGSNRATGIPARFSGSGSGTDFTLTISSLEPEDFAVYYCGQTTEDPYTFGQGTKLEIK | 1.83 µg/mL
13 | P1AI5027 (antibody, human IgG1, name in Kabat numbering, V domains shown) VH: EVQLVESGGGLVQPGGSLRLSCAASGFNIKDTYMHWVRQAPGKGLEWVGRIDPANGNSKYADSVKGRFTISADTSKNTAYLQMNSLRAEDTAVYYCAPFGYYVSDYAMAYWGQGTTVTVSS VL: EIVLTQSPATLSLSPGERATLSCRAGESVDIFGVGFLHWYQQKPGQAPRLLIYRGSNRATGIPARFSGSGSGTDFTLTISSLEPEDFAVYYCGQTQEDPYTFGQGTKLEIK | 25.1 µg/mL
14 | P1AI5028 (antibody, human IgG1, name in Kabat numbering, V domains shown) VH: EVQLVESGGGLVQPGGSLRLSCAASGFNIKDTYMHWVRQAPGKGLEWVGRIDPANGNSKYADSVKGRFTISADTSKNTAYLQMNSLRAEDTAVYYCAPFGYYVSDYAMAYWGQGTTVTVSS VL: EIVLTQSPATLSLSPGERATLSCRAGESVDIFGVGFLHWYQQKPGQAPRLLIYRGSNRATGIPARFSGSGSGTDFTLTISSLEPEDFAVYYCGQTHEDPYTFGQGTKLEIK | 7.51 µg/mL
15 | P1AI5029 (antibody, human IgG1, name in Kabat numbering, V domains shown) VH: EVQLVESGGGLVQPGGSLRLSCAASGFNIKDTYMHWVRQAPGKGLEWVGRIDPANGNSKYADSVKGRFTISADTSKNTAYLQMNSLRAEDTAVYYCAPFGYYVSDYAMAYWGQGTTVTVSS VL: EIVLTQSPATLSLSPGERATLSCRAGESVDIFGVGFLHWYQQKPGQAPRLLIYRGSNRATGIPARFSGSGSGTDFTLTISSLEPEDFAVYYCGQTKEDPYTFGQGTKLEIK | 1.92 µg/mL
16 | P1AI5030 (antibody, human IgG1, name in Kabat numbering, V domains shown) VH: EVQLVESGGGLVQPGGSLRLSCAASGFNIKDTYMHWVRQAPGKGLEWVGRIDPANGNSKYADSVKGRFTISADTSKNTAYLQMNSLRAEDTAVYYCAPFGYYVSDYAMAYWGQGTTVTVSS VL: EIVLTQSPATLSLSPGERATLSCRAGESVDIFGVGFLHWYQQKPGQAPRLLIYRGSNRATGIPARFSGSGSGTDFTLTISSLEPEDFAYYYCGQTNEDPYTFGQGTKLEIK | 11.2 µg/mL
17 | P1AI5032 (antibody, human IgG1, name in Kabat numbering, V domains shown, Double mutant of T84.66-LCHA VL) VH: EVQLVESGGGLVQPGGSLRLSCAASGFNIKDTYMHWVRQAPGKGLEWVGRIDPANGNSKYADSVKGRFTISADTSKNTAYLQMNSLRAEDTAVYYCAPFGYYVSDYAMAYWGQGTTVTVSS VL: EIVLTQSPATLSLSPGERATLSCRAGESVDHFGVGFLHWYQQKPGQAPRLLIYRGSNRATGIPARFSGSGSGTDFTLTISSLEPEDFAVYYCQQTNEDPYTFGQGTKLEIK | 1.53 µg/mL
